For 14 substances, other: trimer fraction results are on record in article PMC11497598.

Assay in all cases: analytical SEC
Common to all, as to details: cell culture supernatant of Expi293F cells; parent: est. 72; read off a plot

Test [1] has as its target B/Iowa/06/2017 HA HA1 152W.
In test [2] the target is B/Iowa/06/2017 HA HA1 213A.
The target of test [3] is B/Iowa/06/2017 HA HA1 K209R.
The target of test [4] is B/Iowa/06/2017 HA HA1 T211L.
Test [5] deals with B/Iowa/06/2017 HA HA1 T218I.
For test [6], the target named is B/Iowa/06/2017 HA HA2 67A.
Test [7] deals with B/Iowa/06/2017 HA HA2 91V.
Test [8] addresses B/Iowa/06/2017 HA HA2 111L.
Test [9] concerns the target B/Iowa/06/2017 HA HA2 E113N.
In test [10] the target is B/Iowa/06/2017 HA HA2 H22F.
Test [11] deals with B/Iowa/06/2017 HA HA2 H22W.
The target of test [12] is B/Iowa/06/2017 HA HA2 H114F.
The target of test [13] is B/Iowa/06/2017 HA HA2 H114N.
The target in test [14] is B/Iowa/06/2017 HA HA2 S110R.

In the case of “wild-type soluble hemagglutinin (HA) of influenza B/Iowa/06/2017 HA1:152W”, in [1], the other: trimer fraction was 81%.

On to “wild-type soluble hemagglutinin (HA) of influenza B/Iowa/06/2017 HA1:213A”, for which the other: trimer fraction in test [2] was found to be 82%.

“wild-type soluble hemagglutinin (HA) of influenza B/Iowa/06/2017 HA1:K209R”: the other: trimer fraction in [3] stood at 79%. In the case of “wild-type soluble hemagglutinin (HA) of influenza B/Iowa/06/2017 HA1:T211L”, the other: trimer fraction in [4] was 95%. As to “wild-type soluble hemagglutinin (HA) of influenza B/Iowa/06/2017 HA1:T218I”, the other: trimer fraction in test [5] came to 82%. Consider “wild-type soluble hemagglutinin (HA) of influenza B/Iowa/06/2017 HA2:67A”, for which the other: trimer fraction in test [6] was found to be 64%. For the substance “wild-type soluble hemagglutinin (HA) of influenza B/Iowa/06/2017 HA2:91V”, the other: trimer fraction in [7] stood at 77%. In the case of “wild-type soluble hemagglutinin (HA) of influenza B/Iowa/06/2017 HA2:111L”, the other: trimer fraction in [8] came to 55%.

With “wild-type soluble hemagglutinin (HA) of influenza B/Iowa/06/2017 HA2:E113N”, the other: trimer fraction in test [9] was determined as 96%. For “wild-type soluble hemagglutinin (HA) of influenza B/Iowa/06/2017 HA2:H22F”, the other: trimer fraction in [10] is 91%. Regarding “wild-type soluble hemagglutinin (HA) of influenza B/Iowa/06/2017 HA2:H22W”, the other: trimer fraction in test [11] is 81%. Regarding “wild-type soluble hemagglutinin (HA) of influenza B/Iowa/06/2017 HA2:H114F”, the other: trimer fraction in test [12] is 75%. In the case of “wild-type soluble hemagglutinin (HA) of influenza B/Iowa/06/2017 HA2:H114N”, the other: trimer fraction in test [13] stood at 57%. With “wild-type soluble hemagglutinin (HA) of influenza B/Iowa/06/2017 HA2:S110R”, the other: trimer fraction in [14] was 86%.
